Reference: the supplement of paper PMC11316812
± gives the standard deviation of the averaged measurements.

Assays:
[1] = tested on: MCF7; experiment: percentage of EdU-negative (G0-arrested) nuclei per well, 72 h; higher = more G0 arrest; conditions: reference: sequence is the full UniProt precursor, the tested protein was the secreted form or ectodomain
[2] = tested on: hTERT-HMEC; experiment: as above; conditions: reference: sequence is the full UniProt precursor, the tested protein was the secreted form or ectodomain
[3] = protein concentration 0.02325 µM
[4] = protein concentration 0.2325 µM
[5] = protein concentration 0.0231575 µM
[6] = protein concentration 0.231575 µM
[7] = protein concentration 0.01525 µM
[8] = protein concentration 0.1525 µM
[9] = protein concentration 0.0225 µM
[10] = protein concentration 0.0168571 µM
[11] = protein concentration 0.168571 µM
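Further: secreted proteins added to cultured cells, EdU pulse at the end, nuclei found by Hoechst imaging, EdU status from nuclear versus surrounding ring intensity ratio, PBS as neutral control.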

Sequence: MDLLQFLAFLFVLLLSGMGATGTLRTSLDPSLEIYKKMFEVKRREQLLALKNLAQLNDIHQQYKILDVMLKGLFKVLEDSRTVLTAADVLPDGPFPQDEKLKDAFSHVVENTAFFGDVVLRFPRIVHYYFDHNSNWNLLIRWGISFCNQTGVFNQGPHSPILSLMAQELGISEKDSNFQNPFKIDRTEFIPSTDPFQKALREEEKRRKKEEKRKEIRKGPRISRSQSEL [Q9H6E4]
- percentage of EdU-negative [1, 3]: 27.1 ± 0.79%
- percentage of EdU-negative [1, 4]: 26.7 ± 0.95%
- percentage of EdU-negative [2, 3]: 5.552 ± 0.014%
- percentage of EdU-negative [2, 4]: 6.34 ± 0.88%

Sequence: MYREWVVVNVFMMLYVQLVQGSSNEHGPVKRSSQSTLERSEQQIRAASSLEELLRITHSEDWKLWRCRLRLKSFTSMDSRSASHRSTRFAATFYDIETLKVIDEEWQRTQCSPRETCVEVASELGKSTNTFFKPPCVNVFRCGGCCNEESLICMNTSTSYISKQLFEISVPLTSVPELVPVKVANHTGCKCLPTAPRHPYSIIRRSIQIPEEDRCSHSKKLCPIDMLWDSNKCKCVLQEENPLAGTEDHSHLQEPALCGPHMMFDEDRCECVCKTPCPKDLIQHPKNCSCFECKESLETCCQKHKLFHPDTCSCEDRCPFHTRPCASGKTACAKHCRFPKEKRAAQGPHSRKNP
- percentage of EdU-negative [1, 5]: 27.2 ± 0.62%
- percentage of EdU-negative [1, 6]: 28.82 ± 0.28%
- percentage of EdU-negative [2, 5]: 4.71 ± 0.18%
- percentage of EdU-negative [2, 6]: 7.16 ± 1.6%

Sequence: MWATLPLLCAGAWLLGVPVCGAAELCVNSLEKFHFKSWMSKHRKTYSTEEYHHRLQTFASNWRKINAHNNGNHTFKMALNQFSDMSFAEIKHKYLWSEPQNCSATKSNYLRGTGPYPPSVDWRKKGNFVSPVKNQGACGSCWTFSTTGALESAIAIATGKMLSLAEQQLVDCAQDFNNHGCQGGLPSQAFEYILYNKGIMGEDTYPYQGKDGYCKFQPGKAIGFVKDVANITIYDEEAMVEAVALYNPVSFAFEVTQDFMMYRTGIYSSTSCHKTPDKVNHAVLAVGYGEKNGIPYWIVKNSWGPQWGMNGYFLIERGKNMCGLAACASYPIPLV
- percentage of EdU-negative [1, 7]: 27 ± 2.4%
- percentage of EdU-negative [1, 8]: 29.3 ± 4.1%
- percentage of EdU-negative [2, 7]: 5.31 ± 0.13%
- percentage of EdU-negative [2, 8]: 8.87 ± 0.59%

Sequence: MLPPWTLGLLLLATVRGKEVCYGQLGCFSDEKPWAGTLQRPVKLLPWSPEDIDTRFLLYTNENPNNFQLITGTEPDTIEASNFQLDRKTRFIIHGFLDKAEDSWPSDMCKKMFEVEKVNCICVDWRHGSRAMYTQAVQNIRVVGAETAFLIQALSTQLGYSLEDVHVIGHSLGAHTAAEAGRRLGGRVGRITGLDPAGPCFQDEPEEVRLDPSDAVFVDVIHTDSSPIVPSLGFGMSQKVGHLDFFPNGGKEMPGCKKNVLSTITDIDGIWEGIGGFVSCNHLRSFEYYSSSVLNPDGFLGYPCASYDEFQESKCFPCPAEGCPKMGHYADQFKGKTSAVEQTFFLNTGESGNFTSWRYKISVTLSGKEKVNGYIRIALYGSNENSKQYEIFKGSLKPDASHTCAIDVDFNVGKIQKVKFLWNKRGINLSEPKLGASQITVQSGEDGTEYNFCSSDTVEENVLQSLYPC
- percentage of EdU-negative [1, 9]: 25.9 ± 0.35%
- percentage of EdU-negative ([1]; protein concentration 0.225 µM): 26.41 ± 0.1%
- percentage of EdU-negative [2, 9]: 4.69 ± 0.62%
- percentage of EdU-negative ([2]; protein concentration 0.225 µM): 5.7 ± 0.076%

Sequence: MLLVLVVLIPVLVSSGGPEGHYEMLGTCRMVCDPYPARGPGAGARTDGGDALSEQSGAPPPSTLVQGPQGKPGRTGKPGPPGPPGDPGPPGPVGPPGEKGEPGKPGPPGLPGAGGSGAISTATYTTVPRVAFYAGLKNPHEGYEVLKFDDVVTNLGNNYDAASGKFTCNIPGTYFFTYHVLMRGGDGTSMWADLCKNGQVRASAIAQDADQNYDYASNSVILHLDAGDEVFIKLDGGKAHGGNSNKYSTFSGFIIYSD
- percentage of EdU-negative [1, 10]: 27 ± 0.61%
- percentage of EdU-negative [1, 11]: 28.3 ± 0.59%
- percentage of EdU-negative [2, 10]: 4.78 ± 0.083%
- percentage of EdU-negative [2, 11]: 8.79 ± 0.3%

Sequence: MEEGQYSEIEELPRRRCCRRGTQIVLLGLVTAALWAGLLTLLLLWHWDTTQSLKQLEERAARNVSQVSKNLESHHGDQMAQKSQSTQISQELEELRAEQQRLKSQDLELSWNLNGLQADLSSFKSQELNERNEASDLLERLREEVTKLRMELQVSSGFVCNTCPEKWINFQRKCYYFGKGTKQWVHARYACDDMEGQLVSIHSPEEQDFLTKHASHTGSWIGLRNLDLKGEFIWVDGSHVDYSNWAPGEPTSRSQGEDCVMMRGSGRWNDAFCDRKLGAWVCDRLATCTPPASEGSAESMGPDSRPDPDGRLPTPSAPLHS
- percentage of EdU-negative ([1]; protein concentration 0.005 µM): 23.6 ± 0.92%
- percentage of EdU-negative ([1]; protein concentration 0.05 µM): 23.9 ± 0.99%
- percentage of EdU-negative ([2]; protein concentration 0.005 µM): 5.26 ± 0.5%
- percentage of EdU-negative ([2]; protein concentration 0.05 µM): 5.97 ± 0.12%
